Measured values from patent US20180141988A1 (Pieris, published 2018).
Residue numbers refer to the chain shown, from its start.

B1: lipocalin mutein of SEQ ID NO: 8 (designed binder)
chain: QDSTSDLIPAPPLSKVPLQQNFQDNQFQGKWYVVGRAGNVGLREDKDPPKMWATIYELKEDKSYDVTNVRFARKKCLYSIGTFVPGSQPGEFTLGQIKSEPGNTANLVRVVSTNYNQHAMVFFKEVYQNREIFFIILYGRTKELTSELKENFIRFSKSLGLPENHIVFPVPIDQCIDGSAWSHPQFEK
notes: hNGAL (Lcn2) mutein; also called optimized GPC3 specific lipocalin mutein
B2: lipocalin mutein of SEQ ID NO: 14 (designed binder)
chain: B1 chain with R73G, C76V, L77K, S79T, N106T, I136T, C175A
notes: as for B1
B3: lipocalin mutein of SEQ ID NO: 15 (designed binder)
chain: B1 chain with W52R, N68G, A72G, R73E, C76I, L77K, E100Q, N103D, C175A
notes: as for B1
B4: lipocalin mutein of SEQ ID NO: 4 (designed binder)
chain: B1 chain with Q28H, G41A, W52R, D65N, R73M, L77M, A105S, I136T
notes: hNGAL (Lcn2) mutein; also called non-optimized GPC3-specific Lcn2 mutein; mother clone
B5: lipocalin mutein of SEQ ID NO: 9 (designed binder)
chain: B1 chain with L77T, N103G
notes: as for B1
B6: lipocalin mutein of SEQ ID NO: 13 (designed binder)
chain: B1 chain with V40L, L77M, N103S, I136T
notes: as for B1
B7: lipocalin mutein of SEQ ID NO: 16 (designed binder)
chain: B1 chain with W52R, N68G, A72D, R73S, C76V, L77T, C175A
notes: as for B1
B8: lipocalin mutein of SEQ ID NO: 12 (designed binder)
chain: B1 chain with G41A, W52R, R70V, R73G, L77K, Q96R, E100P
notes: as for B1
B9: lipocalin mutein of SEQ ID NO: 10 (designed binder)
chain: B1 chain with V40G, G41A, L77V, Q96P, N106S
notes: as for B1
B10: lipocalin mutein of SEQ ID NO: 5 (designed binder)
chain: QDSTSDLIPAPPLSKVPLQQNFQDNQFQGKWYVVGVAGNALLREDKDPLKMRATIYELKEDKSYDVTVVSFWRKKCHYKIGTFVPGSQPGEFTLGDIKSGPGQTSNLVRVVSTNYNQHAMVFFKEVRQNREWFAITLYGRTKELTSELKENFIRFSKSLGLPENHIVFPVPIDQCIDGSAWSHPQFEK
notes: as for B1
B11: lipocalin mutein of SEQ ID NO: 3 (designed binder)
chain: B10 chain with Q28H, L41M, D65N, V68G
notes: as for B4
B12: lipocalin mutein of SEQ ID NO: 7 (designed binder)
chain: B10 chain with A40G, L41M, V68S, S70A, W72R, R73N, D96Q, Q103E, A134F
notes: as for B1
B13: lipocalin mutein of SEQ ID NO: 11 (designed binder)
chain: B1 chain with G41A, W52R, N68A, Q96R, N103Y
notes: as for B1
B14: lipocalin mutein of SEQ ID NO: 6 (designed binder)
chain: B10 chain with A40V, L41R, L49P, V68G, W72R, R73G, Q103E, A134F
notes: as for B1
B15: negative control lipocalin (SEQ ID NO: 2) (other)
chain: QDSTSDLIPAPPLSKVPLQQNFQDNQFHGKWYVVGLAGNAILREDKDPQKMYATIYELKEDKSYNVTSVLFRKKKCDYWIRTFVPGSQPGEFTLGNIKSYPGLTSYLVRVVSTNYNQHAMVFFKKVSQNREYFKITLYGRTKELTSELKENFIRFSKSLGLPENHIVFPVPIDQCIDG

What follows are binders tested against T1, human GPC3 on stably transfected SK-HEP-1 cells (human, UniProt P51654 25-554) (assay: MSD-based (ECL) cell binding assay on transfected SK-HEP-1 cells).
T1 construct: whole, on cells; also called SK-HEP-1::human GPC3
T1 sequence (P51654 25-554 limits assumed): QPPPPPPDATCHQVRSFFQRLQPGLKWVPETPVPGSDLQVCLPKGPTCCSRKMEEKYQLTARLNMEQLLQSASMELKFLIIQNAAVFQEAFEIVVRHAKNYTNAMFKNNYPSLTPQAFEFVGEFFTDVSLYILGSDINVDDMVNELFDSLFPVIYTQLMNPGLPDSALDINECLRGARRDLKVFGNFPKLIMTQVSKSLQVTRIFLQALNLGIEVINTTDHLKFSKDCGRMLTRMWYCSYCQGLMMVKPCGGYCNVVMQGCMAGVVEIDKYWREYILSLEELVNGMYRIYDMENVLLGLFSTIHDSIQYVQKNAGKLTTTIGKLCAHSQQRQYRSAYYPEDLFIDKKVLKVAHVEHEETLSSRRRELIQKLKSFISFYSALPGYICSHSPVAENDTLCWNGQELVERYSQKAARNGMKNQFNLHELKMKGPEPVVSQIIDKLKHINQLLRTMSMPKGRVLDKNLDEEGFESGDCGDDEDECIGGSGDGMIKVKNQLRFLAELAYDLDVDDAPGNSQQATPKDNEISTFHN
Protocol: (§1) Binding of optimized lipocalin muteins of SEQ ID NOs: 5-16 to human, cynomolgus and mouse GPC3 compared to SEQ ID NOs: 3 and 4 was tested on SK-HEP-1 cells using an ECL format (FIG. 1). In this experiment, dilution series of lipocalin muteins were incubated on MSD plates coated with human, cynomolgus or mouse GPC3 overexpressing SK-HEP-1 cells.
(§2) SEQ ID NOs: 3, 4, 5, 7, 8, 9, 10, 12, 13, 14, 15 and 16 (using 1000 nM as starting concentration) were serially diluted at a 1:3 ratio down to the picomolar range in PBS/Casein. 20 μl of the dilution series were transferred to the SK-HEP-1-coated plates for 1 hour at room temperature.
(§3) To allow for detection and quantification of bound GPC3 specific lipocalin muteins, the residual supernatants were discarded and 20 μl of a mixture of rabbit anti scaffold antibody (2 μg/ml) and Sulfotag labelled anti rabbit antibody (5 μg/ml) prepared in PBS/casein was added to the wells and incubated for 1 h at RT. After washing, 35 μl surfactant-free reading buffer was added to each well and the ECL intensity of every well was read using a MSD reader.
In the case of B1, the EC50 is reported as 1.4 nM. With B2 the EC50 was 9.5 nM. Binder B3 has an EC50 of 1.6 nM. B4 gave an EC50 of 10.2 nM. In the case of B5, the EC50 is reported as 1.1 nM. In the case of B6, the EC50 is reported as 0.9 nM. With B7 the EC50 was 2.2 nM. B8 showed an EC50 of 2 nM. B9 was tested, and the EC50 was 0.8 nM. B10 showed an EC50 of 24.1 nM. Binder B11 has an EC50 of 24.3 nM. B12 gave an EC50 of 2.5 nM.

What follows are binders tested against T2, mouse GPC3 on stably transfected SK-HEP-1 cells (mouse, UniProt Q8CFZ4 25-553) in the same assay as above.
T2 construct: whole, on cells; also called SK-HEP-1::mouse GPC3; murine GPC3
T2 sequence (Q8CFZ4 25-553 limits assumed): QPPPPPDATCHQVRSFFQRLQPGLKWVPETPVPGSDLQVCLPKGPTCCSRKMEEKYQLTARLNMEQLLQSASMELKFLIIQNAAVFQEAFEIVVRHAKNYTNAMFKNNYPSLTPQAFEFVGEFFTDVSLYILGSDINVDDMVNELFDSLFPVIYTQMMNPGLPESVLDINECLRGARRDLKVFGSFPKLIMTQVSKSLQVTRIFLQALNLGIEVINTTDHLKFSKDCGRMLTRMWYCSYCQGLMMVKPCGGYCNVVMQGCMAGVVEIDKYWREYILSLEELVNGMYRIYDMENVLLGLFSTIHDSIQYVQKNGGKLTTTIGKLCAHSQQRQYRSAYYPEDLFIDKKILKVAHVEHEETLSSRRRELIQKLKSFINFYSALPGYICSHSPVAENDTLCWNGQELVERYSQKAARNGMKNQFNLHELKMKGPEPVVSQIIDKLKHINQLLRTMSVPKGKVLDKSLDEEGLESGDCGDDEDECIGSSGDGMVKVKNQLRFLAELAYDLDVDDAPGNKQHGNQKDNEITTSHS
Protocol: as §1, §2, §3
B1 was tested, and the EC50 was 5.3 nM. In the case of B2, the EC50 is reported as 6.7 nM. For B3, the EC50 was 4.8 nM. B4 was tested, and the EC50 was 7.1 nM. B5 showed an EC50 of 4.1 nM. B6 was tested, and the EC50 was 2.9 nM. Work on B7 yielded an EC50 of 4.4 nM. B8 gave an EC50 of 5.3 nM. B9 showed an EC50 of 3.8 nM. B10 gave an EC50 of 25.6 nM. Binder B11 has an EC50 of 29.8 nM. B12 gave an EC50 of 4.8 nM.

What follows are binders tested against T3, cynomolgus GPC3 on stably transfected SK-HEP-1 cells (cynomolgus, UniProt A0A2K5VK50 24-553) in the same assay as above.
T3 construct: whole, on cells; also called SK-HEP-1::cyno GPC3; SK-HEP-1::cynomolugus GPC3
Protocol: as §1, §2, §3
B1 was tested, and the EC50 was 2.3 nM. With B2 the EC50 was 15.4 nM. Binder B3 has an EC50 of 1.6 nM. With B4 the EC50 was 5.7 nM. B5 gave an EC50 of 1.9 nM. With B6 the EC50 was 0.6 nM. Binder B7 has an EC50 of 2.5 nM. B8 was tested, and the EC50 was 1.7 nM. In the case of B9, the EC50 is reported as 0.8 nM. With B10 the EC50 was 33.9 nM. B11 showed an EC50 of 29.9 nM. With B12 the EC50 was 2.8 nM.

What follows are binders tested against T4, Human GPC3 (2119-GP; R&D systems), biotinylated (human, UniProt P51654 25-559, biotinylated using standard NHS chemistry) (assay: SPR (Biacore T200), biotinylated GPC3 captured on chip, mutein in flow).
T4 construct: Bought protein; also called human Glypican-3
T4 sequence (P51654 25-559 limits assumed): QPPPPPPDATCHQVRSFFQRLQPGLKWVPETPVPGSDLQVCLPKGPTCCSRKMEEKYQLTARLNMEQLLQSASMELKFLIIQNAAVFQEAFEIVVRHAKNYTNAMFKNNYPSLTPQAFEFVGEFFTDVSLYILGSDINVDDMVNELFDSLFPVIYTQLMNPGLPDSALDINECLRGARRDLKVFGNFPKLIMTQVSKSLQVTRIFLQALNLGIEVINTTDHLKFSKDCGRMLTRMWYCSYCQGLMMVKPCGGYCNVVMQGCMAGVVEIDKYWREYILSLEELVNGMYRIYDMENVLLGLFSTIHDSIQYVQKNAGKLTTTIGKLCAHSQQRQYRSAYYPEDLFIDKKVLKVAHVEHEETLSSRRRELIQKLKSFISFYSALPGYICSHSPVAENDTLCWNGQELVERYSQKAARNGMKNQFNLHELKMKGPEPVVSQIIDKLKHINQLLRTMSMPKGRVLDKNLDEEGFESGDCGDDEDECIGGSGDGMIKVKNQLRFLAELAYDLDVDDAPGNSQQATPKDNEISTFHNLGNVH
Protocol: (§4) SPR analysis of the binding of the optimized Lcn2 muteins to human and mouse GPC3 was performed at 25° C. on a Biacore T200 instrument (GE Healthcare) using HBS-EP+ (1x; BR-1006-69; GE Healthcare) as running buffer. The Biotin CAPture Kit (GE Healthcare) was used to immobilize biotinylated GPC3 to a chip surface. Human GPC3 (2119-GP; R&D systems) and murine GPC3 (6938-GP; R&D systems) were biotinylated using standard NHS chemistry. Undiluted Biotin CAPture Reagent (streptavidin conjugated with ss-DNA oligo) was captured on a Sensor Chip CAP with the pre-immobilized complementary ss-DNA oligo. Thereafter, biotinylated human or murine GPC3 at 1 μg/ml was applied for 300 s at a flow rate of […].
(§5) Lcn2 muteins were applied in concentrations of 10 nM, 40 nM and 160 nM at a flow rate of 30 μL/min. The dilutions were injected with association times of 180 s and dissociation times of 600 s to obtain ka and kd information. Regeneration of the chip surface was achieved by injecting 6 M Guanidinium-HCl+0.25 M NaOH (120 s) with a flow rate of 10 μL/min. Injection of regeneration solutions was followed by an extra wash step with H₂O and a stabilization period of 120 s.
(§6) The data were double-referenced by subtraction of the corresponding signals measured for the control channel (loaded with Biotin CAPture reagent only) and by subtraction of buffer injections from the binding responses. Association rate constant ka and dissociation rate constant kd for the binding reaction were determined using Biacore T200 Evaluation Software V2.0 for data processing and kinetic fitting. The data were globally fit with 1:1 binding model.
B1 gave a Kd of 0.068 nM, a koff of 0.00013 s⁻¹ and a kon of 2e+06 M⁻¹ s⁻¹. For B2, the Kd was 0.819 nM, the koff was 0.002 s⁻¹ and the kon was 2.4e+06 M⁻¹ s⁻¹. For B3, the Kd was 0.035 nM, the koff was 4.9e-05 s⁻¹ and the kon was 1.4e+06 M⁻¹ s⁻¹. B4 gave a Kd of 0.877 nM, a koff of 0.0022 s⁻¹ and a kon of 2.5e+06 M⁻¹ s⁻¹. B5 gave a Kd of 0.054 nM, a koff of 9.8e-05 s⁻¹ and a kon of 1.8e+06 M⁻¹ s⁻¹. B6 gave a Kd of 0.07 nM, a koff of 0.00018 s⁻¹ and a kon of 2.6e+06 M⁻¹ s⁻¹. Work on B7 yielded a Kd of 0.171 nM, a koff of 0.00011 s⁻¹ and a kon of 670000 M⁻¹ s⁻¹. B8 was tested, and the Kd was 0.037 nM, the koff was 0.00024 s⁻¹ and the kon was 6.5e+06 M⁻¹ s⁻¹. For B13, the Kd was 0.027 nM, the koff was 4.6e-05 s⁻¹ and the kon was 1.7e+06 M⁻¹ s⁻¹. B9 showed a Kd of 0.063 nM, a koff of 0.00012 s⁻¹ and a kon of 1.8e+06 M⁻¹ s⁻¹. B10 showed a Kd of 0.119 nM, a koff of 0.0002 s⁻¹ and a kon of 1.6e+06 M⁻¹ s⁻¹. Binder B11 has a Kd of 0.387 nM, a koff of 0.00022 s⁻¹ and a kon of 560000 M⁻¹ s⁻¹. Work on B12 yielded a Kd of 0.097 nM, a koff of 0.00013 s⁻¹ and a kon of 1.3e+06 M⁻¹ s⁻¹. B14 was tested, and the Kd was 0.019 nM, the koff was 3.3e-05 s⁻¹ and the kon was 1.8e+06 M⁻¹ s⁻¹.

Each binder was assayed against T5, murine GPC3 (6938-GP; R&D systems), biotinylated (murine, UniProt Q8CFZ4 25-558, limits assumed, biotinylated using standard NHS chemistry) in the same assay as above.
T5 construct: Bought protein; also called mouse GPC3
T5 sequence (Q8CFZ4 25-558 limits assumed): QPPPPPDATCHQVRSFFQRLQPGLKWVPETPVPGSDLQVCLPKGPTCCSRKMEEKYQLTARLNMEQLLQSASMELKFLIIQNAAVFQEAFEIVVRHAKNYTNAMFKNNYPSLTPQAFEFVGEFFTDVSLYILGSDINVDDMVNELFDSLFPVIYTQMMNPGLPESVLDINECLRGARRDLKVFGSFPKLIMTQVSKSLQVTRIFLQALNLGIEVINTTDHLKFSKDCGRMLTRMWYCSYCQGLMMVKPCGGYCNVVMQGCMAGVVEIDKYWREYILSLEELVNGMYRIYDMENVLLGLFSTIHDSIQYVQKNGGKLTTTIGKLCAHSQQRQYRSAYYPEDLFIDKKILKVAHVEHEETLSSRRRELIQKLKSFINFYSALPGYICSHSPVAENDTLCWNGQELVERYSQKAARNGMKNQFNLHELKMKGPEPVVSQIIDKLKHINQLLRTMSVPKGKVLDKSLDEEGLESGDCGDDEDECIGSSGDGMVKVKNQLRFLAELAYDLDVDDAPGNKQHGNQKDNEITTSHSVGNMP
Protocol: as §4, §5, §6
For B1, the Kd was 0.096 nM, the koff was 0.00018 s⁻¹ and the kon was 1.9e+06 M⁻¹ s⁻¹. Work on B2 yielded a Kd of 1.59 nM, a koff of 0.0031 s⁻¹ and a kon of 2e+06 M⁻¹ s⁻¹. B3 gave a Kd of 0.072 nM, a koff of 9.1e-05 s⁻¹ and a kon of 1.3e+06 M⁻¹ s⁻¹. In the case of B4, the Kd is reported as 1.09 nM, the koff is reported as 0.0028 s⁻¹ and the kon is reported as 2.6e+06 M⁻¹ s⁻¹. B5 gave a Kd of 0.075 nM, a koff of 0.00015 s⁻¹ and a kon of 2e+06 M⁻¹ s⁻¹. Binder B6 has a Kd of 0.09 nM, a koff of 0.00024 s⁻¹ and a kon of 2.7e+06 M⁻¹ s⁻¹. B7 was tested, and the Kd was 0.311 nM, the koff was 0.00019 s⁻¹ and the kon was 610000 M⁻¹ s⁻¹. B8 gave a Kd of 0.058 nM, a koff of 0.0003 s⁻¹ and a kon of 5.1e+06 M⁻¹ s⁻¹. B13 gave a Kd of 0.011 nM, a koff of 3.2e-05 s⁻¹ and a kon of 2.9e+06 M⁻¹ s⁻¹. B9 was tested, and the Kd was 0.093 nM, the koff was 0.00017 s⁻¹ and the kon was 1.8e+06 M⁻¹ s⁻¹. Binder B10 has a Kd of 0.207 nM, a koff of 0.00026 s⁻¹ and a kon of 1.3e+06 M⁻¹ s⁻¹. B11 gave a Kd of 0.674 nM, a koff of 0.0003 s⁻¹ and a kon of 450000 M⁻¹ s⁻¹. For B12, the Kd was 0.145 nM, the koff was 0.00015 s⁻¹ and the kon was 1e+06 M⁻¹ s⁻¹. B14 was tested, and the Kd was 0.019 nM, the koff was 4.2e-05 s⁻¹ and the kon was 2.2e+06 M⁻¹ s⁻¹.

What follows are binders tested against T1, human GPC3 on stably transfected … (assay: MSD-based (ECL) cell binding assay on immobilized SK-HEP-1 cells transfected with human GPC3; detection with rabbit anti-scaffold antibody and Sulfotag-labelled anti-rabbit antibody).
Protocol: as §1, §2, §3
B15: no binding (tested: 1000 nM).
